B1: Signaling lymphocytic activation molecule (Mus musculus), Q9QUM4 (parent)
chain: MDPKGSLSWRILLFLSLAFELSYGTGGGVMDCPVILQKLGQDTWLPLTNEHQINKSVNKSVRILVTMATSPGSKSNKKIVSFDLSKGSYPDHLEDGYHFQSKNLSLKILGNRRESEGWYLVSVEENVSVQQFCKQLKLYEQVSPPEIKVLNKTQENENGTCSLLLACTVKKGDHVTYSWSDEAGTHLLSRANRSHLLHITLSNQHQDSIYNCTASNPVSSISRTFNLSSQACKQESSSESSPWMQYTLVPLGVVIIFILVFTAIIMMKRQGKSNHCQPPVEEKSLTIYAQVQKSGPQEKKLHDALTDQDPCTTIYVAATEPAPESVQEPNPTTVYASVTLPES

Variants of: B1
Settings: with becn1_human BECN1, Q14457
becn1_human BECN1, Q14457, sequence (Q14457 whole entry): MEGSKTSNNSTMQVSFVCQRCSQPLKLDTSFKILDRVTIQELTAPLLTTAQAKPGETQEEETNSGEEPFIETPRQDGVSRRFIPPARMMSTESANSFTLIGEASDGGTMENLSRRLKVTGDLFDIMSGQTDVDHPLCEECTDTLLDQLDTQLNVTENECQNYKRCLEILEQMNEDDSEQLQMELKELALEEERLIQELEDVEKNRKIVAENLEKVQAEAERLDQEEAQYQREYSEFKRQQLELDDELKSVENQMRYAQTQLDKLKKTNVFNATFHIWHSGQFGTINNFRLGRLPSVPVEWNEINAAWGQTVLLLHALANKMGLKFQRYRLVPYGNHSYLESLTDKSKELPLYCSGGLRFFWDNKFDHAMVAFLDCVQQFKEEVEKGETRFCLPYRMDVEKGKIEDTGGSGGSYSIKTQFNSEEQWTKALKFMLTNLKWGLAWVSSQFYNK

Effect of a mutation on the interaction, decreasing interaction:
Y288F;Y315F
Y288F;Y335F
Y315F;Y335F

Reference: IntAct's records for PubMed 22493499
